According to patent publication US20200248336A1:

Columns and labels:
[1] = biological target: TAGT-12 (human); test: BLI Octet RED96, antigen-Fc on AHC sensor, Fab analyte
[2] = biological target: TAGT-12 (human); test: BLI, Octet RED96, antigen-Fc on AHC sensor, Fab in solution
[3] = biological target: TAGT-12 (human); test: BLI (Octet RED96), antigen Fc-His on AHC sensor, Fab in solution
[4] = biological target: TAGT-6 (human); test: BLI Octet RED96, antigen-Fc on AHC sensor, Fab analyte
[5] = biological target: TAGT-6 (human); test: BLI (Octet RED96), antigen-Fc on AHC sensor, Fab in solution
[6] = biological target: TAGT-6 (human); test: BLI (Octet), antigen-Fc on AHC sensor
[7] = biological target: TAGT-6 (human); test: BLI Octet, antigen-Fc on AHC sensor, Fab analyte
[8] = biological target: TAGT-6 (human); test: BLI (Octet RED96), antigen Fc-His on AHC sensor, Fab in solution
[9] = biological target: TAGT-12 (human); test: BLI (Octet RED96), antigen-Fc on AHC sensor, Fab in solution
[10] = biological target: TAGT-12 (human); test: BLI (Octet), antigen-Fc on AHC sensor
[11] = biological target: TAGT-8H (human); test: BLI Octet RED96, antigen-Fc on AHC sensor, Fab analyte
[12] = biological target: TAGT-8H (human); test: BLI (Octet RED96), antigen-Fc on AHC sensor, Fab in solution
[13] = biological target: TAGT-8 (human); test: BLI Octet, antigen-Fc on AHC sensor, Fab analyte
[14] = biological target: TAGT-8M (mouse); test: BLI (Octet RED96), antigen-Fc on AHC sensor, Fab in solution
[15] = biological target: TAGT-8 (human); test: BLI (Octet), antigen-Fc on AHC sensor
[16] = biological target: TAGT-8M (mouse); test: BLI (Octet), antigen-Fc on AHC sensor
[17] = biological target: TAGT-8 (human); test: BLI (Octet RED96), antigen Fc-His on AHC sensor, Fab in solution
[18] = biological target: TAGT-8M (mouse); test: as above
[19] = biological target: TAGT-8 (human); test: BLI, Octet RED96, antigen-Fc on AHC sensor, Fab in solution
[20] = biological target: TAGT-8H (human); test: BLI (Octet), antigen-Fc captured, Fab in solution

B1: Hit ID 6010 (Fab, V domains shown)
VH: EVQLVESGGGLVQPGGSLRLSCAASGYSISSGHYWNWIRQAPGKGLEWIGWINPNRGDTNYAQKFQGRVTISRDNSKNTLYLQLNSLRAEDTAVYYCARDYYGDFDYWGQGTLVTVSS
VL: DIQLTQSPSSLSASVGDRVTITCRASQSISSYLNWYQQKPGKAPKLLIYDASNLETGVPSRFSGSGSGTDFTLTISSLQPEDFATYYCQHHYGTPLTFGQGTKVEIKR
[1]
  Kd: 28.3 nM
[2]
  Kd: 28.3 nM
[3]
  Kd: 28.3 nM

B2: Hit ID 7097 (Fab, V domains shown)
VH: EVQLVESGGGLVQPGGSLRLSCAASGYSISSGHHWDWIRQAPGKGLEWVSYISGAGDTTYYADSVKGRFTISRDNSKNTLYLQLNSLRAEDTAVYYCAREGSDAVLGDWFAYWGQGTLVTVSS
VL: DIQLTQSPSSLSASVGDRVTITCRASQGISSYLAWYQQKPGKAPKLLIYDASNLETGVPSRFSGSGSGTDFTLTISSLQPEDFATYYCQQYYSTPLTFGQGTKVEIKR
[4]
  Kd: 24.3 nM
[5]
  Kd: 24.3 nM
[6]
  Kd: 24.3 nM

B3: Hit ID 7183 (Fab, V domains shown)
VH: EVQLVESGGGLVQPGGSLRLSCAASGYSISSGHYWNWIRQAPGKGLEWVSSISGYGDTTYYADSVKGRFTISRDNSKNTLYLQLNSLRAEDTAVYYCAREGSDTVLGDWFAYWGQGTLVTVSS
VL: DIQLTQSPSSLSASVGDRVTITCRASQSISSYLNWYQQKPGKAPKLLIYDASNRATGIPSRFSGSGSGTDFTLTISSLQPEDFATYYCQQSYSTPPTFGQGTKVEIKR
[5]
  Kd: 14.8 nM
[7]
  Kd: 14.8 nM
[8]
  Kd: 14.8 nM

B4: Hit ID 5115 (Fab, V domains shown)
VH: EVQLVESGGGLVQPGGSLRLSCAASGYSISSGHYWGWIRQAPGKGLEWIGEIYHSGSTYYSPSLKSRVTISRDNSKNTLYLQLNSLRAEDTAVYYCARESYYAFDYWGQGTLVTVSS
VL: DIQLTQSPSSLSASVGDRVTITCRASQSVSSYLAWYQQKPGKAPKLLIYAASTLQSGVPSRFSGSGSGTDFTLTISSLQPEDFATYYCQQYYTTPLTFGQGTKVEIKR
[9]
  Kd: 11.6 nM
[10]
  Kd: 11.6 nM

B5: Hit ID 7040 (Fab, V domains shown)
VH: EVQLVESGGGLVQPGGSLRLSCAASGYSISSGYYWNWIRQAPGKGLEWIGWISPSGGSTNYAQKFQGRVTISRDNSKNTLYLQLNSLRAEDTAVYYCARDLTAGGFDYWGQGTLVTVSS
VL: DIQLTQSPSSLSASVGDRVTITCRASQGISSYLAWYQQKPGKAPKLLIYDASNLETGVPSRFSGSGSGTDFTLTISSLQPEDFATYYCQQYYSTPLTFGQGTKVEIKR
[11]
  Kd: 27.2 nM
[12]
  Kd: 27.2 nM
[13]
  Kd: 27.2 nM

B6: Hit ID 5404 (Fab, V domains shown)
VH: EVQLVESGGGLVQPGGSLRLSCAASGYSISSGYHWAWIRQAPGKGLEWIGEIYHSGSTYYSPSLKSRVTISRDNSKNTLYLQLNSLRAEDTAVYYCARSPYYYGVFDYWGQGTLVTVSS
VL: DIQLTQSPSSLSASVGDRVTITCSASSRVGSVYWYQQKPGKAPKLLIYDASNLETGVPSRFSGSGSGTDFTLTISSLQPEDFATYYCQQYTHDPVTFGQGTKVEIKR
[4]
  Kd: 3.3 nM
[5]
  Kd: 3.3 nM
[6]
  Kd: 3.3 nM

B7: Hit ID 4027 (Fab, V domains shown)
VH: EVQLVESGGGLVQPGGSLRLSCAASGYSITSGHHWNWIRQAPGKGLEWIGWISPSSGGTKYAQKFQGRVTISRDNSKNTLYLQLNSLRAEDTAVYYCARGFDGFHYWGQGTLVTVSS
VL: DIQLTQSPSSLSASVGDRVTITCRASESVDFYGISFLPWYQQKPGKAPKLLIYDASNRATGIPSRFSGSGSGTDFTLTISSLQPEDFATYYCQQSYSWPWTFGQGTKVEIKR
[12]
  Kd: 1.55 nM
[14]
  Kd: 3.81 nM
[15]
  Kd: 1.55 nM
[16]
  Kd: 3.81 nM
[17]
  Kd: 1.55 nM
[18]
  Kd: 3.81 nM

B8: Hit ID 4036 (Fab, V domains shown)
VH: EVQLVESGGGLVQPGGSLRLSCAASGFSLSTSGVGVGWIRQAPGKGLEWIGEIYHSGSTYYSPSLKSRVTISRDNSKNTLYLQLNSLRAEDTAVYYCARERYGSYYFDYWGQGTLVTVSS
VL: DIQLTQSPSSLSASVGDRVTITCRASQSVDFYGKSFLDWYQQKPGKAPKLLIYDASSLESGVPSRFSGSGSGTDFTLTISSLQPEDFATYYCQQYYRIPPTFGQGTKVEIKR
[11]
  Kd: 3.13 nM
[19]
  Kd: 3.13 nM
[15]
  Kd: 3.13 nM

B9: Hit ID 4034 (Fab, V domains shown)
VH: EVQLVESGGGLVQPGGSLRLSCAASGYSISSGHYWNWIRQAPGKGLEWVSSISGYGSTTYYADSVKGRFTISRDNSKNTLYLQLNSLRAEDTAVYYCARERYYGSTDYAFDYWGQGTLVTVSS
VL: DIQLTQSPSSLSASVGDRVTITCSASSRVSHVFWYQQKPGKAPKLLIYAASTLQSGVPSRFSGSGSGTDFTLTISSLQPEDFATYFCLQGTHFPWTFGQGTKVEIKR
[13]
  Kd: 4.27 nM
[20]
  Kd: 4.27 nM
[17]
  Kd: 4.27 nM
